Measurements as given in paper PMC4828312 (Journal of neurochemistry, 2016).

B1: Human recombinant tubulin β-3 (TUBB3) (natural protein)
chain: MREIVHIQAGQCGNQIGAKFWEVISDEHGIDPSGNYVGDSDLQLERISVYYNEASSHKYVPRAILVDLEPGTMDSVRSGAFGHLFRPDNFIFGQSGAGNNWAKGHYTEGAELVDSVLDVVRKECENCDCLQGFQLTHSLGGGTGSGMGTLLISKVREEYPDRIMNTFSVVPSPKVSDTVVEPYNATLSIHQLVENTDETYCIDNEALYDICFRTLKLATPTYGDLNHLVSATMSGVTTSLRFPGQLNADLRKLAVNMVPFPRLHFFMPGFAPLTARGSQQYRALTVPELTQQMFDAKNMMAACDPRHGRYLTVATVFRGRMSMKEVDEQMLAIQSKNSSYFVEWIPNNVKVAVCDIPPRGLKMSSTFIGNSTAIQELFKRISEQFTAMFRRKAFLHWYTGEGMDEMEFTEAESNMNDLVSEYQQYQDATAEEEGEMYEDDEEESEAQGPK

Assays:
[1] = target: B1; assay: SPR
[2] = target: HIV-1 envelope glycoprotein gp120, strain IIIB (HIV-1 (strain IIIB), UniProt P04578 33-511); assay: SPR

| Binder | binding result [1] | Kd [2] |
| --- | --- | --- |
| NDMVEQMHEDIISLWDQSLK [Helix-A peptide of gp120] | binds |  |
| B1 |  | 7.5 nM |
